According to patent US20040001835A1, “Prevention or treatment of cancer using integrin alphavbeta3 antagonists in combination with other agents” (MedImmune, Inc., priority 2002, published 2004):
Entries after “also recorded” stand apart in the source; their conditions may differ.

How the values were obtained:
Experiment in all cases: Flow cytometric analysis of antibody binding to cell lines
[1] = target: T1, human αvβ3 (Homo sapiens, UniProt P05106); conditions: for Fold Increase Over Control (mean channel fluorescence): 5×10^5 cells, 0.5 μg antibody, vs isotype matched control antibody
T1 construct: endogenous in cells; host or cells: M21 melanoma, HMVEC, HUVEC
T1 sequence (P05106 27-788): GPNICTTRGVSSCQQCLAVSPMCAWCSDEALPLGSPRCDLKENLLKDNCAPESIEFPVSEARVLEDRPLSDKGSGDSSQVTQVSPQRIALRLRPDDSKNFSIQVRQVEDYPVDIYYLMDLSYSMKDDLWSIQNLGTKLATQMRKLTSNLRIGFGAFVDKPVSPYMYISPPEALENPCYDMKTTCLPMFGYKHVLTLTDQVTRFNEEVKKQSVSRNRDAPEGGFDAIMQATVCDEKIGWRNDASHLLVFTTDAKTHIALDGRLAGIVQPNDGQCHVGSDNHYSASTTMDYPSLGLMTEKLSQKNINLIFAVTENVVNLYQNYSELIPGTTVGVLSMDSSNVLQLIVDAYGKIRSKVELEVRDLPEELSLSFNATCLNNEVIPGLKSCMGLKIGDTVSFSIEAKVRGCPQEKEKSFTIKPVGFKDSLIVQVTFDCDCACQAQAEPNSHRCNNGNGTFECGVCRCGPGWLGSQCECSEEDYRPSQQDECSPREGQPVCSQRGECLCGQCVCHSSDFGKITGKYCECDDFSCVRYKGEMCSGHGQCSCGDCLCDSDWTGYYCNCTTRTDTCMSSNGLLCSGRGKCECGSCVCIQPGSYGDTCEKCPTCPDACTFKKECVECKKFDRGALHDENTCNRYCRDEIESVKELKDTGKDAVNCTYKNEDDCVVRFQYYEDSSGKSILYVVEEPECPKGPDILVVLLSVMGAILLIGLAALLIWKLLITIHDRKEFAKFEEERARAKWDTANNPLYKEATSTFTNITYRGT
T1 sequence (P06756 31-889 partner limits assumed): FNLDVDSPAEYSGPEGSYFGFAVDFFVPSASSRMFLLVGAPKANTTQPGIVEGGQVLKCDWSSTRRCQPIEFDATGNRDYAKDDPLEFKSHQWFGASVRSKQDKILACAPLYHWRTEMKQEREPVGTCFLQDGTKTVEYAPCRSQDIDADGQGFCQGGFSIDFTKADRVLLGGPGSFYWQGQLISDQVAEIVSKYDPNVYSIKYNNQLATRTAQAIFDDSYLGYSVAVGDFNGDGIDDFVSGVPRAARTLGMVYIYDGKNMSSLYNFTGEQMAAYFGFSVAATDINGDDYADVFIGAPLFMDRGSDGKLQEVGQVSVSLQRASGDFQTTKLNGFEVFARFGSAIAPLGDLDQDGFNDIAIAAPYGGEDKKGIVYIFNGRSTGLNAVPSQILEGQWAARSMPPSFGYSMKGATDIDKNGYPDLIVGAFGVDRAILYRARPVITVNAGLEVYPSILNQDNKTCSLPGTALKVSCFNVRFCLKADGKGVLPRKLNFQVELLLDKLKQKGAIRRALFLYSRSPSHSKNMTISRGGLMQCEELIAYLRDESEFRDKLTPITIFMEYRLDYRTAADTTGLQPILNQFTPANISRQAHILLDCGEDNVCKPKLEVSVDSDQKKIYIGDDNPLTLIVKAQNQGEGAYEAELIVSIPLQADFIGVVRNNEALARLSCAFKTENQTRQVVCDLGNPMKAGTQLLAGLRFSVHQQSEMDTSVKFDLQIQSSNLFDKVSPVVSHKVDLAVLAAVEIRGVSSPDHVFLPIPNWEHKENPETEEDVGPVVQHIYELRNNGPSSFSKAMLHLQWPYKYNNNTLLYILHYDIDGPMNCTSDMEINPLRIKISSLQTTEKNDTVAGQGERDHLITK
T1 sequence (P06756 891-1048 partner limits assumed): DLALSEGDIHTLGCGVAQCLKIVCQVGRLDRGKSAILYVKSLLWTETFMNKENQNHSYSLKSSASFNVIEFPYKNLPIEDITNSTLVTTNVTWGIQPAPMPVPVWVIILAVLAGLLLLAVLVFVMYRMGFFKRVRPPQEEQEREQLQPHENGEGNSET
Protocol: (§1) FIG. 2. Flow cytometric analysis of antibody binding to tumor cell lines. […] Rat αvβ3 was not recognized by any of the three antibodies but was detected by the anti-rat αvβ3 control antibody.
(§2) Cells (5×10^5) were incubated with 0.5 μg of antibody and bound antibody was detected with a phycoerythrin-labeled secondary antibody. Mean channel fluorescence results are expressed as fold increase over an isotype matched control antibody. The mouse anti-rat β3 antibody F11 was included for as a positive control for the rat cell line RG2. HMVEC, human microvascular endothelial cells; ND, not done.

[2] = target: T2, Rat αvβ3 (Rattus norvegicus, UniProt Q8R2H2); conditions: Rat RG2 glioma; 5×10^5 cells, 0.5 μg antibody; vs isotype matched control antibody
T2 construct: endogenous in cells; host or cells: RG2 glioma
T2 sequence (Q8R2H2 26-787): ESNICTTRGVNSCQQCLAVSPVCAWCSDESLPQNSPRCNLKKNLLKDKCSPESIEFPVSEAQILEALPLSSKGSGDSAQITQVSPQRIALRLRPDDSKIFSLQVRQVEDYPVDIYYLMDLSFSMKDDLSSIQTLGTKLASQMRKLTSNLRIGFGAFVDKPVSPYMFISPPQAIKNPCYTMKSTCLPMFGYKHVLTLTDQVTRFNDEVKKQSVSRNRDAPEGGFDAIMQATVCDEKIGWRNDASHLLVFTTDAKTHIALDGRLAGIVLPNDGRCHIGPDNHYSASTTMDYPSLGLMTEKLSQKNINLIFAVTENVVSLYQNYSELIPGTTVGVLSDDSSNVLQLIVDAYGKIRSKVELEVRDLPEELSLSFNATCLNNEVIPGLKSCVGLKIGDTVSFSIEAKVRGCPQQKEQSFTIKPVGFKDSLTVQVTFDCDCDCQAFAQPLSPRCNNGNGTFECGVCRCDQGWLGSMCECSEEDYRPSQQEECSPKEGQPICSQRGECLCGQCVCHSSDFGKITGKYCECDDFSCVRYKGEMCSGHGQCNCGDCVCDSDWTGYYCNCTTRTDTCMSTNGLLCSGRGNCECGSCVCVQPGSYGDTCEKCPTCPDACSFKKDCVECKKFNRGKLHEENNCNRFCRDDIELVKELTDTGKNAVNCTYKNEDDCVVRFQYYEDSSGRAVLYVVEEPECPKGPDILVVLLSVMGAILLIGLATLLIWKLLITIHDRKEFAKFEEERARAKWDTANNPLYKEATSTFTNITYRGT
Protocol: as §1, §2

[3] = system: Rabbit αvβ3
Protocol: as §1, §2

[4] = system: hamster αvβ3
Protocol: as §1, §2

[5] = flow cytometry, tumor cell lines, FIG. 2

- Fold Increase Over Control (mean channel fluorescence) ([1]; Human HMVEC endothelial): 8.9 fold
- Fold Increase Over Control (mean channel fluorescence) ([1]; Human M21 melanoma): 73 fold
- Fold Increase Over Control (mean channel fluorescence) [2]: 0.95 fold
B1: Vitaxin®: humanized blocking monoclonal antibody that binds Integrin αVβ3 (MEDI-522, MedImmune); humanized and optimized version of LM609 (antibody, chains of the INN, looked up, V domains shown)
VH: QVQLVESGGGVVQPGRSLRLSCAASGFTFSSYDMSWVRQAPGKGLEWVAKVSSGGGSTYYLDTVQGRFTISRDNSKNTLYLQMNSLRAEDTAVYYCARHLHGSFASWGQGTTVTVSS
VL: EIVLTQSPATLSLSPGERATLSCQASQSISNFLHWYQQRPGQAPRLLIRYRSQSISGIPARFSGSGSGTDFTLTISSLEPEDFAVYYCQQSGSWPLTFGGGTKVEIK
- binding to human αvβ3 (in words) [1, 5]: recognized; also recorded: capable of binding
- Fold Increase Over Control (mean channel fluorescence) ([3]; Rabbit VX7 carcinoma, 5×10^5 cells, 0.5 μg antibody, vs isotype matched control antibody): 17 fold
- binding to rabbit αvβ3 (in words) [3, 5]: recognized
- Fold Increase Over Control (mean channel fluorescence) ([4]; Hamster CCL-49 melanoma, 5×10^5 cells, 0.5 μg antibody, vs isotype matched control antibody): 12 fold
- binding to hamster αvβ3 (in words) [4, 5]: recognized; also recorded: capable of binding
